{
  "source": "IntAct's records for PubMed 31515488",
  "parents": {"B1": {"name": "Sperm microtubule associated protein 2 (Homo sapiens), Q9P2T0 (parent)", "chain": "MGDSRRRSLGNQPSSEAAGRSEREQDGDPRGLQSSVYESRRVTDPERQDLDNAELGPEDPEEELPPEEVAGEEFPETLDPKEALSELERVLDKDLEEDIPEISRLSISQKLPSTTMTKARKRRRRRRLMELAEPKINWQVLKDRKGRCGKGYAWISPCKMSLHFCLCWPSVYWTERFLEDTTLTITVPAVSRRVEELSRPKRFYLEYYNNNRTTPVWPIPRSSLEYRASSRLKELAAPKIRDNFWSMPMSEVSQVSRAAQMAVPSSRILQLSKPKAPATLLEEWDPVPKPKPHVSDHNRLLHLARPKAQSDKCVPDRDPRWEVLDVTKKVVASPRIISLAKPKVRKGLNEGYDRRPLASMSLPPPKASPEKCDQPRPGL"}, "B2": {"name": "Tripartite motif-containing protein 10 (Homo sapiens), Q9UDY6 (parent)", "chain": "MASAASVTSLADEVNCPICQGTLREPVTIDCGHNFCRACLTRYCEIPGPDLEESPTCPLCKEPFRPGSFRPNWQLANVVENIERLQLVSTLGLGEEDVCQEHGEKIYFFCEDDEMQLCVVCREAGEHATHTMRFLEDAAAPYREQIHKCLKCLRKEREEIQEIQSRENKRMQVLLTQVSTKRQQVISEFAHLRKFLEEQQSILLAQLESQDGDILRQRDEFDLLVAGEICRFSALIEELEEKNERPARELLTDIRSTLIRCETRKCRKPVAVSPELGQRIRDFPQQALPLQREMKMFLEKLCFELDYEPAHISLDPQTSHPKLLLSEDHQRAQFSYKWQNSPDNPQRFDRATCVLAHTGITGGRHTWVVSIDLAHGGSCTVGVVSEDVQRKGELRLRPEEGVWAVRLAWGFVSALGSFPTRLTLKEQPRQVRVSLDYEVGWVTFTNAVTREPIYTFTASFTRKVIPFFGLWGRGSSFSLSS", "partner": "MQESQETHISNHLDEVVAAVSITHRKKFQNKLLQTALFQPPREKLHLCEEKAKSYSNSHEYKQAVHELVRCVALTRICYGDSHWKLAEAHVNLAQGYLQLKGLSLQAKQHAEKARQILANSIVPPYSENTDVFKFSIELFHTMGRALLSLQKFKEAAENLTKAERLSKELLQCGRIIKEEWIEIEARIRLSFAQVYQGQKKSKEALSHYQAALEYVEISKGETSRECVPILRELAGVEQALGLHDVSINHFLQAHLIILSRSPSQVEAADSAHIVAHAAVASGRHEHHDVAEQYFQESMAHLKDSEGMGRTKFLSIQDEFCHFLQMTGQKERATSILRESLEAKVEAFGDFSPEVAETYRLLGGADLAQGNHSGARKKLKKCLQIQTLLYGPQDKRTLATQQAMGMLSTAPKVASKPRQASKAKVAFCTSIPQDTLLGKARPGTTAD"}, "B3": {"name": "E3 ubiquitin-protein ligase LNX (Homo sapiens), Q8TBB1 (parent)", "chain": "MNQPESANDPEPLCAVCGQAHSLEENHFYSYPEEVDDDLICHICLQALLDPLDTPCGHTYCTLCLTNFLVEKDFCPMDRKPLVLQHCKKSSILVNKLLNKLLVTCPFREHCTQVLQRCDLEHHFQTSCKGASHYGLTKDRKRRSQDGCPDGCASLTATAPSPEVSAAATISLMTDEPGLDNPAYVSSAEDGQPAISPVDSGRSNRTRARPFERSTIRSRSFKKINRALSVLRRTKSGSAVANHADQGRENSENTTAPEVFPRLYHLIPDGEITSIKINRVDPSESLSIRLVGGSETPLVHIIIQHIYRDGVIARDGRLLPGDIILKVNGMDISNVPHNYAVRLLRQPCQVLWLTVMREQKFRSRNNGQAPDAYRPRDDSFHVILNKSSPEEQLGIKLVRKVDEPGVFIFNVLDGGVAYRHGQLEENDRVLAINGHDLRYGSPESAAHLIQASERRVHLVVSRQVRQRSPDIFQEAGWNSNGSWSPGPGERSNTPKPLHPTITCHEKVVNIQKDPGESLGMTVAGGASHREWDLPIYVISVEPGGVISRDGRIKTGDILLNVDGVELTEVSRSEAVALLKRTSSSIVLKALEVKEYEPQEDCSSPAALDSNHNMAPPSDWSPSWVMWLELPRCLYNCKDIVLRRNTAGSLGFCIVGGYEEYNGNKPFFIKSIVEGTPAYNDGRIRCGDILLAVNGRSTSGMIHACLARLLKELKGRITLTIVSWPGTFL", "partner": "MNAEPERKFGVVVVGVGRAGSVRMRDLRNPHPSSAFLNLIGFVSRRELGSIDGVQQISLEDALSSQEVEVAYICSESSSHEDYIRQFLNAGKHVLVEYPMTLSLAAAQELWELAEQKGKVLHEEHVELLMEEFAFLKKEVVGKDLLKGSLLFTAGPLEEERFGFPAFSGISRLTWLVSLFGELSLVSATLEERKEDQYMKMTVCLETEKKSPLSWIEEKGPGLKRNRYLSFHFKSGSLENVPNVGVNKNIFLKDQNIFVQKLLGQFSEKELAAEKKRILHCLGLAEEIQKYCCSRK"}, "B4": {"name": "Mothers against decapentaplegic homolog 4 (Homo sapiens), Q13485 (parent)", "chain": "MDNMSITNTPTSNDACLSIVHSLMCHRQGGESETFAKRAIESLVKKLKEKKDELDSLITAITTNGAHPSKCVTIQRTLDGRLQVAGRKGFPHVIYARLWRWPDLHKNELKHVKYCQYAFDLKCDSVCVNPYHYERVVSPGIDLSGLTLQSNAPSSMMVKDEYVHDFEGQPSLSTEGHSIQTIQHPPSNRASTETYSTPALLAPSESNATSTANFPNIPVASTSQPASILGGSHSEGLLQIASGPQPGQQQNGFTGQPATYHHNSTTTWTGSRTAPYTPNLPHHQNGHLQHHPPMPPHPGHYWPVHNELAFQPPISNHPAPEYWCSIAYFEMDVQVGETFKVPSSCPIVTVDGYVDPSGGDRFCLGQLSNVHRTEAIERARLHIGKGVQLECKGEGDVWVRCLSDHAVFVQSYYLDREAGRAPGDAVHKIYPSAYIKVFDLRQCHRQMQQQAATAQAAAAAQAAAVAGNIPGPGSVGGIAPAISLSAAAGIGVDDLRRLCILRMSFVKGWGPDYPRQSIKETPCWIEIHLHRALQLLDEVLHTMPIADPQPLD", "partner": "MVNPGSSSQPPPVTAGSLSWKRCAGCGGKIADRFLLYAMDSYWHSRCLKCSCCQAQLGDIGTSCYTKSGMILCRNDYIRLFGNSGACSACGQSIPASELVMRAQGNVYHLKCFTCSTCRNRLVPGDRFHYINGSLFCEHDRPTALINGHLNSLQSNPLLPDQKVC"}, "B5": {"name": "DCC-interacting protein 13-alpha (Homo sapiens), Q9UKG1 (parent)", "chain": "MPGIDKLPIEETLEDSPQTRSLLGVFEEDATAISNYMNQLYQAMHRIYDAQNELSAATHLTSKLLKEYEKQRFPLGGDDEVMSSTLQQFSKVIDELSSCHAVLSTQLADAMMFPITQFKERDLKEILTLKEVFQIASNDHDAAINRYSRLSKKRENDKVKYEVTEDVYTSRKKQHQTMMHYFCALNTLQYKKKIALLEPLLGYMQAQISFFKMGSENLNEQLEEFLANIGTSVQNVRREMDSDIETMQQTIEDLEVASDPLYVPDPDPTKFPVNRNLTRKAGYLNARNKTGLVSSTWDRQFYFTQGGNLMSQARGDVAGGLAMDIDNCSVMAVDCEDRRYCFQITSFDGKKSSILQAESKKDHEEWICTINNISKQIYLSENPEETAARVNQSALEAVTPSPSFQQRHESLRPAAGQSRPPTARTSSSGSLGSESTNLAALSLDSLVAPDTPIQFDIISPVCEDQPGQAKAFGQGGRRTNPFGESGGSTKSETEDSILHQLFIVRFLGSMEVKSDDHPDVVYETMRQILAARAIHNIFRMTESHLLVTCDCLKLIDPQTQVTRLTFPLPCVVLYATHQENKRLFGFVLRTSSGRSESNLSSVCYIFESNNEGEKICDSVGLAKQIALHAELDRRASEKQKEIERVKEKQQKELNKQKQIEKDLEEQSRLIAASSRPNQASSEGQFVVLSSSQSEESDLGEGGKKRESEA", "partner": "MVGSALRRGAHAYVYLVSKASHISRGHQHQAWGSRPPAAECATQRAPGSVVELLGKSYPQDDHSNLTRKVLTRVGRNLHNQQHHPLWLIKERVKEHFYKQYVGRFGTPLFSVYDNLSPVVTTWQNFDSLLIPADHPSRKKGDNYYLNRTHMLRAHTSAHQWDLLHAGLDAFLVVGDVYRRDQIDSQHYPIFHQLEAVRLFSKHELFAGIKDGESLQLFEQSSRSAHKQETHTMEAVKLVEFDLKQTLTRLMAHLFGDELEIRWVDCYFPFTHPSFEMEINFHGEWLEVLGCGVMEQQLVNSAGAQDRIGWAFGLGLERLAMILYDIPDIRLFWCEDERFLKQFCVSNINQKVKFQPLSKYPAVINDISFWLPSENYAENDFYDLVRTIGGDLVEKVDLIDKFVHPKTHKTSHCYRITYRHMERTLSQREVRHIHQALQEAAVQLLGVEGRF"}},
  "data": [
    {"variants_of": "B1", "conditions": "with fhl3_human FHL3, Q13643", "values": [
      {"variant": "R231H", "effect of a mutation on the interaction": "with no effect"},
      {"variant": "P66S", "effect of a mutation on the interaction": "with no effect"},
      {"variant": "T184A", "effect of a mutation on the interaction": "with no effect"},
      {"variant": "S39N", "effect of a mutation on the interaction": "with no effect"},
      {"variant": "H297Y", "effect of a mutation on the interaction": "with no effect"},
      {"variant": "R176W", "effect of a mutation on the interaction": "with no effect"},
      {"variant": "R176Q", "effect of a mutation on the interaction": "with no effect"},
      {"variant": "M249V", "effect of a mutation on the interaction": "with no effect"}
    ]},
    {"variants_of": "B2", "conditions": "with ttc23_human TTC23, Q5W5X9", "values": [
      {"variant": "D30N", "effect of a mutation on the interaction": "with no effect"},
      {"variant": "Q210L", "effect of a mutation on the interaction": "with no effect"},
      {"variant": "R216K", "effect of a mutation on the interaction": "with no effect"},
      {"variant": "I236T", "effect of a mutation on the interaction": "disrupting interaction strength"},
      {"variant": "Q161E", "effect of a mutation on the interaction": "with no effect"}
    ]},
    {"variants_of": "B3", "conditions": "with biea_human BLVRA", "values": [
      {"variant": "R342H", "effect of a mutation on the interaction": "with no effect"}
    ]},
    {"variants_of": "B4", "conditions": "with lmo4_human LMO4, P61968", "values": [
      {"variant": "L533R", "effect of a mutation on the interaction": "with no effect"},
      {"variant": "Y353S", "effect of a mutation on the interaction": "with no effect"},
      {"variant": "C324R", "effect of a mutation on the interaction": "disrupting interaction strength"},
      {"variant": "V350D", "effect of a mutation on the interaction": "disrupting interaction strength"},
      {"variant": "R361C", "effect of a mutation on the interaction": "with no effect"},
      {"variant": "G352R", "effect of a mutation on the interaction": "with no effect"},
      {"variant": "N13S", "effect of a mutation on the interaction": "with no effect"},
      {"variant": "E330K", "effect of a mutation on the interaction": "with no effect"}
    ]},
    {"variants_of": "B5", "conditions": "with syfm_human FARS2, O95363", "values": [
      {"variant": "E643Q", "effect of a mutation on the interaction": "with no effect"}
    ]}
  ]
}
